Common to all, as to assay: BLI; 6×His-ZapC or its mutants (0.5 µM) loaded on Ni-NTA biosensors, untagged FtsZ or its variants in solution; Octet-Red96, 30°C, 1× Pol buffer (50 mM HEPES-NaOH pH 6.8, 50 mM KCl, 10 mM MgCl2); apparent Kd from the signal at the end of association against concentration, one-site fit; three repeats with mean (X) and SD
Details in all cases: both partners purified
In general terms: In BLI a coated tip is dipped into the sample, and binding shifts an interference pattern.

The target in one experiment is T1, FtsZ D360Y (untagged) (Escherichia coli, UniProt P0A9A6 1-383, D360Y).
T1 construct: FtsZ of Escherichia coli with D360Y (CTL); Derivative of pLY17 by site-directed mutagenesis; source: E. coli BL21(DE3), plasmid pLY339, purified (Ni-NTA); 6×His-SUMO tag removed with Ulp1; not shown: 6×His-SUMO, N-terminal, cleaved
T1 sequence (looked up): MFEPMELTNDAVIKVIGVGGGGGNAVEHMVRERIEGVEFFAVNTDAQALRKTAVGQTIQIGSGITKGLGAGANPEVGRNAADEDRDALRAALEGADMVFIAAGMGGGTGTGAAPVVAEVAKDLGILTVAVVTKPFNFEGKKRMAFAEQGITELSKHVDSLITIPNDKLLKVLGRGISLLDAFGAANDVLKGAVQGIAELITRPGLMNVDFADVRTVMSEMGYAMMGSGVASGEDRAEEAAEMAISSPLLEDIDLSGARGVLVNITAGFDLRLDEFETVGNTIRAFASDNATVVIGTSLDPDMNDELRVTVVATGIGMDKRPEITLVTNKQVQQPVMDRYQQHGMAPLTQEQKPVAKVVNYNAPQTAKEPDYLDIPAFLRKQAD

Another experiment addresses T2, FtsZ F285S (untagged) (Escherichia coli, UniProt P0A9A6 1-383, F285S).
T2 construct: FtsZ of Escherichia coli with F285S (globular domain); Derivative of pLY17 by site-directed mutagenesis; insert starts at codon 2 as in pLY17; source: E. coli BL21(DE3), plasmid pLY19, purified (Ni-NTA); 6×His-SUMO tag removed with Ulp1; not shown: 6×His-SUMO, N-terminal, cleaved
T2 sequence (looked up): T1 sequence (looked up) with F285S, Y360D

The target of the next experiment is T3, FtsZ A376T (untagged) (Escherichia coli, UniProt P0A9A6 1-383, A376T).
T3 construct: FtsZ of Escherichia coli with A376T (CTP); Derivative of pLY17 by site-directed mutagenesis; source: E. coli BL21(DE3), plasmid pLY22, purified (Ni-NTA); 6×His-SUMO tag removed with Ulp1; not shown: 6×His-SUMO, N-terminal, cleaved
T3 sequence (looked up): T1 sequence (looked up) with Y360D, A376T

The target in experiment [1] is T4, FtsZ (untagged, wild type) (Escherichia coli, UniProt P0A9A6 1-383).
T4 construct: also called wild-type FtsZ; source: E. coli BL21(DE3), plasmid pLY17, purified (Ni-NTA); 6×His-SUMO tag removed with Ulp1; not shown: 6×His-SUMO, N-terminal, cleaved
T4 sequence (looked up): T1 sequence (looked up) with Y360D

Numbering of substitutions follows the chain as printed. Several values for one entry are separate records, joined by “and”; a condition that tells them apart may be missing. Identical values can stand only once.

Our source for the Kd values is publication PMC12607630, “ZapC crosslinks FtsZ filaments through a dual-binding mechanism modulated by the intrinsically disordered linker of FtsZ in Escherichia coli” (mBio, 2025).

B1: 6×His-ZapC (natural protein)
chain: not shown
notes: ZapC, FtsZ-associated protein of Escherichia coli; Construction of pSD323 is not described; also called His-tagged ZapC; source: E. coli, plasmid pSD323 (pQE80, Plac::6×His-ZapC), purified (Ni-NTA); not shown: His6, N-terminal, kept
As for B1, the Kd in the experiment with FtsZ D360Y (untagged) is 573 nM and 823 nM and 735 nM and 710 nM; in the experiment with FtsZ F285S (untagged) it was 5.02 µM and 6.37 µM and 6.13 µM and 5.84 µM; with FtsZ A376T (untagged) it was 859 nM and 778 nM and 821 nM and 819 nM; in experiment [1], 377 nM and 395 nM and 364 nM and 379 nM.
